Earlier results as cited in patent publication US20150182632A1, “ANTI-INTERLEUKIN-1 (IL-1) ANTIBODY USED AS A TARGETING AGENT TO TREAT ARTHRITIS AND OTHER DISEASES” (priority 2012, published 2015).

Target: T1, IL-1 (Homo sapiens, UniProt P01584)
T1 construct: Patients with arthritis and other inflammatory diseases produce IL-1 which is present in the blood; host or cells: endogenous IL-1 of RA patients (in vivo)
Settings: several intravenous injections

clinical response of RA patients: clinical improvement
Substance: ACZ885: anti-IL-1 monoclonal antibody
